Assay results: the supplement of paper PMC11246515
± gives the standard deviation of the averaged measurements.

Assay: total protein half-life in vivo (active degradation + dilution); higher = more stable protein
[1] = E. coli NCM3722 delta-clpP delta-lon delta-hslV, growth: N-lim chemostat, doubling time 6 h
[2] = E. coli NCM3722 delta-clpP, growth: N-lim chemostat, doubling time 6 h
[3] = E. coli NCM3722 delta-hslV, growth: N-lim chemostat, doubling time 6 h
[4] = E. coli NCM3722 delta-lon, growth: N-lim chemostat, doubling time 6 h
[5] = E. coli NCM3722 delta-smpB, growth: N-lim chemostat, doubling time 6 h
[6] = wild type E. coli NCM3722, growth: C-lim chemostat, doubling time 3 h
[7] = wild type E. coli NCM3722, growth: C-lim chemostat, doubling time 6 h
[8] = wild type E. coli NCM3722, growth: C-lim chemostat, doubling time 12 h
[9] = wild type E. coli NCM3722, growth: N-lim chemostat, doubling time 6 h
[10] = wild type E. coli NCM3722, growth: N-lim chemostat, doubling time 12 h
[11] = wild type E. coli NCM3722, growth: P-lim chemostat, doubling time 6 h
[12] = wild type E. coli NCM3722, growth: P-lim chemostat, doubling time 12 h

Sequence | total protein half-life in vivo [1] [h] | total protein half-life in vivo [2] [h] | total protein half-life in vivo [3] [h] | total protein half-life in vivo [4] [h] | total protein half-life in vivo [5] [h] | total protein half-life in vivo [6] [h] | total protein half-life in vivo [7] [h] | total protein half-life in vivo [8] [h] | total protein half-life in vivo [9] [h] | total protein half-life in vivo [10] [h] | total protein half-life in vivo [11] [h] | total protein half-life in vivo [12] [h]
MRVENNNVSGQNHDPEQIDLIDLLVQLWRGKMTIIISVIVAIALAIGYLAVAKEKWTSTAIITQPDVGQIAGYNNAMNVIYGQAAPKVSDLQETLIGRFSSAFSALAETLDNQEEREKLTIEPSVKNQQLPLTVSYVGQTAEGAQMKLAQYIQQVDDKVNQELEKDLKDNIALGRKNLQDSLRTQEVVAQEQKDLRIRQIQEALQYANQAQVTKPQIQQTGEDITQDTLFLLGSEALESMIKHEATRPLVFSPNYYQTRQNLLDIESLKVDDLDIHAYRYVMKPMLPIRRDSPKKAITLILAVLLGGMVGAGIVLGRNALRNYNAK | 6.28 ± 0.95 | 6.967 ± 0.025 | 6.99 ± 0.87 | 6.083 ± 0.046 | 6.13 ± 0.13 | 3.05 ± 0.051 | 5.61 ± 0.062 | 11.1 ± 1.2 | 6.07 ± 0.17 | 12 ± 1.5 | 5.97 ± 0.15 | 12.1 ± 0.5
MRVFKTKLIRLQLTAEELDALTADFISYKRDGVLPDIFGRDALYDDSFTWPLIKFERVAHIHLANENNPFPPQLRQFSRTNDEAHLVYCQGAFDEQAWLLIAILKPEPHKLARDNNQMHKIGKMAEAFRMRF | 7.33 |  |  |  |  |  |  |  |  |  | > 8 | 12.4 ± 1
MRVITLAGSPRFPSRSSSLLEYAREKLNGLDVEVYHWNLQNFAPEDLLYARFDSPALKTFTEQLQQADGLIVATPVYKAAYSGALKTLLDLLPERALQGKVVLPLATGGTVAHLLAVDYALKPVLSALKAQEILHGVFADDSQVIDYHHRPQFTPNLQTRLDTALETFWQALHRRDVQVPDLLSLRGNAHA | 4.66 ± 0.17 |  |  | 1.83 |  |  |  |  |  |  |  | 
MRVLGIETSCDETGIAIYDDEKGLLANQLYSQVKLHADYGGVVPELASRDHVRKTVPLIQAALKESGLTAKDIDAVAYTAGPGLVGALLVGATVGRSLAFAWDVPAIPVHHMEGHLLAPMLEDNPPEFPFVALLVSGGHTQLISVTGIGQYELLGESIDDAAGEAFDKTAKLLGLDYPGGPLLSKMAAQGTAGRFVFPRPMTDRPGLDFSFSGLKTFAANTIRDNGTDDQTRADIARAFEDAVVDTLMIKCKRALDQTGFKRLVMAGGVSANRTLRAKLAEMMKKRRGEVFYARPEFCTDNGAMIAYAGMVRFKAGATADLGVSVRPRWPLAELPAA | 4.38 ± 0.12 | 3 ± 0.72 | 3.73 ± 1.1 | 4.84 ± 1.2 | 3.17 ± 0.33 | 2.618 ± 0.021 | 4.72 ± 0.64 | 7.77 ± 1.6 | 3.33 ± 0.5 | 4.16 ± 0.42 | 4.07 ± 0.11 | 8.07 ± 0.76
MRVLLAPMEGVLDSLVRELLTEVNDYDLCITEFVRVVDQLLPVKVFHRICPELQNASRTPSGTLVRVQLLGQFPQWLAENAARAVELGSWGVDLNCGCPSKTVNGSGGGATLLKDPELIYQGAKAMREAVPAHLPVSVKVRLGWDSGEKKFEIADAVQQAGATELVVHGRTKEQGYRAEHIDWQAIGDIRQRLNIPVIANGEIWDWQSAQQCMAISGCDAVMIGRGALNIPNLSRVVKYNEPRMPWPEVVALLQKYTRLEKQGDTGLYHVARIKQWLSYLRKEYDEATELFQHVRVLNNSPDIARAIQAIDIEKL | 5.15 ± 0.54 | 4.72 ± 0.35 | 4.92 ± 0.12 |  | 4.76 ± 0.15 | 2.89 ± 0.34 |  | 10.6 | 5.2 ± 0.37 | 8.91 ± 1.2 | 5.81 ± 0.9 | 11.7 ± 1.4
MRVLVVEDNALLRHHLKVQIQDAGHQVDDAEDAKEADYYLNEHIPDIAIVDLGLPDEDGLSLIRRWRSNDVSLPILVLTARESWQDKVEVLSAGADDYVTKPFHIEEVMARMQALMRRNSGLASQVISLPPFQVDLSRRELSINDEVIKLTAFEYTIMETLIRNNGKVVSKDSLMLQLYPDAELRESHTIDVLMGRLRKKIQAQYPQEVITTVRGQGYLFELR | 4.69 ± 0.2 | 4.2 ± 0.46 | 4.056 ± 0.01 | 4.7 ± 0.21 | 4.19 ± 0.29 | 2.85 ± 0.13 | 5.04 ± 0.12 | 8.69 ± 1 | 4.33 ± 0.29 | 7.55 ± 0.24 | 5.134 ± 0.051 | 8.98 ± 0.26
MRWLPFIAIFLYVYIEISIFIQVAHVLGVLLTLVLVIFTSVIGMSLVRNQGFKNFVLMQQKMAAGENPAAEMIKSVSLIIAGLLLLLPGFFTDFLGLLLLLPPVQKHLTVKLMPHLRFSRMPGGGFSAGTGGGNTFDGEYQRKDDERDRLDHKDDRQD | 5.99 ± 0.11 | 6.83 ± 1.1 | 6.44 ± 0.84 | 6.06 ± 0.49 | 5.53 ± 0.073 | 2.47 ± 0.28 | 7.17 ± 0.34 | 11.7 ± 1.8 | 6.12 ± 1.3 | 14.2 | 5.89 ± 0.25 | 12.4 ± 0.96
MRWQGRRESDNVEDRRNSSGGPSMGGPGFRLPSGKGGLILLIVVLVAGYYGVDLTGLMTGQPVSQQQSTRSISPNEDEAAKFTSVILATTEDTWGQQFEKMGKTYQQPKLVMYRGMTRTGCGAGQSIMGPFYCPADGTVYIDLSFYDDMKDKLGADGDFAQGYVIAHEVGHHVQKLLGIEPKVRQLQQNATQAEVNRLSVRMELQADCFAGVWGHSMQQQGVLETGDLEEALNAAQAIGDDRLQQQSQGRVVPDSFTHGTSQQRYSWFKRGFDSGDPAQCNTFGKSI | 5.3 ± 0.69 | 6.06 ± 0.32 | 5.36 ± 0.17 |  | 4.87 ± 0.34 | 2.861 ± 0.027 | 5.19 ± 0.22 | 7.6 ± 3 | 5.54 ± 0.5 | 11.2 ± 2 | 3.37 ± 0.57 | 8.39 ± 3.7
MRYIVALTGGIGSGKSTVANAFADLGINVIDADIIARQVVEPGAPALHAIADHFGANMIAADGTLQRRALRERIFANPEEKNWLNALLHPLIQQETQHQIQQATSPYVLWVVPLLVENSLYKKANRVLVVDVSPETQLKRTMQRDDVTREHVEQILAAQATREARLAVADDVIDNNGAPDAIASDVARLHAHYLQLASQFVSQEKP [P0A6I9] | 4.61 ± 0.82 | 4.08 ± 0.2 | 4.04 ± 0.14 | 4.32 ± 0.1 | 4.78 ± 0.96 | 3.06 ± 0.28 | 4.83 ± 0.92 | 9.87 ± 0.29 | 4.18 ± 0.04 | 6.95 ± 0.2 | 5.34 ± 0.12 | 11.1 ± 0.22
